# From patent US20260055206A1 (GENSUN BIOPHARMA, published 2026)
# Substitutions are numbered along the chain they refer to.
# T1: human DLL3 (over-expressed on CHO-K1 cells) (human, UniProt Q9NYJ7 27-618)
# T1 construct: whole, on cells; also called huDLL3; Delta-like 3
# T1 sequence (looked up): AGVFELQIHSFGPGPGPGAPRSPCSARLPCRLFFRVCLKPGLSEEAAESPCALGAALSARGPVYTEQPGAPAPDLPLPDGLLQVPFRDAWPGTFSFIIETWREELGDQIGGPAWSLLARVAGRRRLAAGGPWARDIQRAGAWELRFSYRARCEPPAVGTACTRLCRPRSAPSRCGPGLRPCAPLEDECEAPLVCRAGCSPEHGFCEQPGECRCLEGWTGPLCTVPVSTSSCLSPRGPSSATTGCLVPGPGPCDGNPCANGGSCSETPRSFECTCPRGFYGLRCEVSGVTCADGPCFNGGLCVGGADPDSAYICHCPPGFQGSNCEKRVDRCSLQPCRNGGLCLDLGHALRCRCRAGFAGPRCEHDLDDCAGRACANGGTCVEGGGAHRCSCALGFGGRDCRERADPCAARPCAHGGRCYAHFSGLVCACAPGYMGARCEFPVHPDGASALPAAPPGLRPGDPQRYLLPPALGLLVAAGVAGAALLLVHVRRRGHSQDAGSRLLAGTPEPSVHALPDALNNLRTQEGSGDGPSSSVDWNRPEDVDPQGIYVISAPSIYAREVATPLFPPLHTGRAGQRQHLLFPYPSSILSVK
# B1: DLL3.3 (humanized anti-DLL3 antibody) (antibody, V domains shown)
# VH: QVQLVQSGAEVKKPGASVKVSCKASGYTFTDYFMNWVRQAPGQGLEWMGVINPYNDITIYNQKFQGRVTMTVDRSTSTVYMELSSLRSEDTAVYYCAREGVLYDGYYEGAYWGQGTLVTVSS
# VL: DIQLTQSPSFLSASVGDRVTITCKASQNVGIAVAWYQQKPGKAPKLLIYAASNRYTGVPSRFSGSGSGTEFTLTISSLQPEDFATYYCQQYSTYPYTFGQGTKLEIK
# notes: it was detected with anti-human IgG Fc
# B2: DLL3.1 (humanized anti-DLL3 antibody) (antibody, V domains shown)
# VH: QVQLVQSGAEVKKPGASVKVSCKASDYTFSNYYIEWVRQAPGQGLEWMGEILPGNGNTVYNEKFKDRVTMTVDTSTSTAYMELRSLRSDDTAVYYCARWGDYALFANWGQGTLVTVSS
# VL: DIQMTQSPSTLSASVGDRVTITCKASQNVGTNVAWYQQKPGKAPKALIYSASYRYSGVPSRFSGSGSGTEFTLTISSLQPDDFATYYCQQYNSYPFTFGQGTKLEIK
# notes: as for B1
# B3: DLL3.4 (humanized anti-DLL3 antibody) (antibody, V domains shown)
# VH: B2 VH with S25T, T28I, N55T, A79V, R84S, D89E
# VL: B2 VL with T10F, A46P, A51T, D81E, S93N, F96L, Q100G, L104V
# notes: as for B1
# Target: T1, human DLL3 (over-expressed on CHO-K1 …)
# Assay: flow cytometry (iQue) on CHO-K1 cells over-expressing human DLL3, PE anti-human IgG Fc secondary
# Experimental: To evaluate the ability of anti-DLL3 antibodies to bind, human serial dilutions of the anti-DLL3 antibodies were added to CHO-K1 cells (20,000 cells/well) over-expressing human or cyno DLL3. The mixtures were incubated at 4° C. for 20 minutes, washed 3 times, and stained with the secondary antibody, PE labeled F(ab′)2-Goat anti-human IgG Fc (Thermo H10104) at 4° C. for 20 minutes. Cells were washed and resuspended in 7-Amino-Actinomycin D (7-AAD) solution and fixed in 10% neutral buffered formalin solution for 15 minutes before analysis with the iQue-Intellicyt […]™ iQUE™ system. FIG. 3A is a graph of the concentration (nM) versus the mean fluorescence intensity.
row,binding result,Binder
1,binds,B1
2,binds,B2
3,binds,B3
